The record followed here is patent publication US5939284A, “Protein phosphatase 1 binding protein, R5” (Smithkline Beecham Corporation, priority 1996, dated 1999).

In assay [1] the target is Human PP1g (catalytic subunit of protein phosphatase 1), bacterially expressed (human) (UniProt P36873).
A further assay deals with phosphorylase a. Briefly: Blot overlay with 32P labelled phosphorylase a. Format: binding. The following applies: proteins electrophoresed, transferred to nitrocellulose, probed with 32P labelled phosphorylase a; blot not shown.
The target in assay [2] is PP1g (catalytic subunit of protein phosphatase 1). Briefly: Protein phosphatase assay: phosphorylase phosphatase activity of PP1. Conditions: freshly prepared preparation; 32P-labelled phosphorylase as substrate; preincubated 15 minutes at 30° C.; FIG. 3; read-out: IC50 for inhibition of the phosphorylase phosphatase activity of PP1. Format: biochemical, human.
Procedure: Protein phosphatase assays were performed in the absence of divalent cations as described in Cohen et al, (1988), cited above. The catalytic subunit PP1g, described above in Example 2, was diluted in assay buffer to 1.5 U/ml (1.4 nM). Rabbit skeletal muscle glycogen phosphorylase was ^32 P-labelled by phosphorylase kinase to a stoichiometry of 1 mol phosphate per mol subunit as in Cohen et al, Meth. Enzymol. 159:390-408 (1988) and was 10 mM in the assays.
Assays were initiated with 0.01 ml ^32 P-labelled phosphorylase. One unit of activity is the amount of enzyme which catalyses the release of 1 mmol of [^32 P]phosphate per minute.

Procedure for phosphorylase a: An immunoblot was prepared, comparing the binding of phosphorylase a to GST-GL and GST-R5. GST-R5 and GST-GL were electrophoresed on a 10% polyacrylamide gel, transferred to nitrocellulose membranes and either (A) probed with 0.01 ml ^32 P labelled phosphorylase a as described in Doherty et al, (1995), cited above and Moorhead et al., (1995), cited above or (B) stained with Coomassie blue. One lane ran the affinity-purified GST-GL ; a second lane ran affinity purified GST- R5; a third lane ran GST-R5 after gel filtration on Superdex 200 for each condition (A) and (B).

On to GST-GL fusion protein, for which the IC50, inhibition of phosphorylase phosphatase activity of PP1 in assay [1] stood at 100 nM.

GST-PPP1R5 fusion protein displayed an IC50, inhibition of phosphorylase phosphatase activity of PP1 in assay [1] of 100 nM.

B1: GST-GL: GST fusion protein of the rat liver glycogen binding subunit (GL) of protein phosphatase 1, bacterially expressed (protein)
chain: MAVDIEYSYSSMAPSLRRERFTFKISPKLNKPLRPCIQLGSKDEAGRMVAPTVQEKKVKKRVSFADNQGLALTMVKVFSEFDDPLDIPFNITELLDNIVSLTTAESESFVLDFPQPSADYLDFRNRLQTNHVCLENCVLKEKAIAGTVKVQNLAFEKVVKIRMTFDTWKSFTDFPCQYVKDTYAGSDRDTFSFDISLPEKIQSYERMEFAVCYECNGQSYWDSNKGKNYRITRAELRSTQGMTEPYNGPDFGISFDQFGSPRCSFGLFPEWPSYLGYEKLGPYY
With B1, the “Binding of phosphorylase a” value with phosphorylase a is reported as “bound”. Also, the IC50 in assay [2] was roughly 100 nM.

What is called IC50 is the concentration at which inhibition is half-maximal.
